Test results published in patent publication US20240190985A1 (published 2024).
Residue numbers refer to the chain shown, from its start. In names and notes the source's numbering stands. Each block holds one binder with its values, some of them ahead of it.

Columns and labels:
[1] = molecular target: T1, CD99 endogenously expressed on cells (Jurkat, KOPT-K1) (UniProt P14209 23-185, O-linked glycosylation (natural, on cells)); experiment: cell binding; apparent KD; nM Fv; avid
T1 chain: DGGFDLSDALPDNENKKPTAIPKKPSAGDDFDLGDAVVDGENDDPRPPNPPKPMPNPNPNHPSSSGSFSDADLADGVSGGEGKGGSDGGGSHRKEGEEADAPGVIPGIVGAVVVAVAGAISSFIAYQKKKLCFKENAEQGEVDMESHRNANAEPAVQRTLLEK

[2] = molecular target: T1, CD99 endogenously expressed on cells …; experiment: cell binding; apparent KD; nM molecule; avid
[3] = molecular target: T1, CD99 endogenously expressed on cells …; experiment: cell binding; apparent KD; nM molecule
[4] = molecular target: T1, CD99 endogenously expressed on cells …; experiment: cell binding; apparent KD; nM Fv
[5] = molecular target: T2, SUMO-CD99 fusion protein (SUMO fused with the extracellular domain of CD99, residues 23-122) (UniProt P14209 23-122, biotin on the AviTag (BirA, in vitro)); experiment: bead-based titration (flow cytometry); apparent KD, nM Fv, scFv-Fc
T2 chain: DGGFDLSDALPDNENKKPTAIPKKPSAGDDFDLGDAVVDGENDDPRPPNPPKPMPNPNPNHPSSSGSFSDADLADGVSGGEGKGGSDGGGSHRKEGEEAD

Kd [1]: 16 nM | Kd [2]: 8 nM
B1: 10A1 IgG-E345R (antibody)
heavy: QVQLQQSGPVLVKPSQTLSLTCAISGDSISSDTTAWSWIRRSPSRGLEWLGWTYYRSKWFNYYAVSVKGRVTINPDTSKNQFSLQLSSVTPEDTAVYYCARGNGNGGMDVWGQGTTVTVSSASTKGPSVFPLAPSSKSTSGGTAALGCLVKDYFPEPVTVSWNSGALTSGVHTFPAVLQSSGLYSLSSVVTVPSSSLGTQTYICNVNHKPSNTKVDKKVEPKSCDKTHTCPPCPAPEAAGGPSVFLFPPKPKDTLMISRTPEVTCVVVDVSHEDPEVKFNWYVDGVEVHNAKTKPREEQYNSTYRVVSVLTVLHQDWLNGKEYKCKVSNKALGAPIEKTISKAKGQPRRPQVYTLPPSREEMTKNQVSLTCLVKGFYPSDIAVEWESNGQPENNYKTTPPVLDSDGSFFLYSKLTVDKSRWQQGNVFSCSVMHEALHNHYTQKSLSLSPGK
light: SYVLTQPASASVSPGQTARITCSGDALPKQYAYWYQQKPGQAPVLVIFKDSERPSGVPERFSGSSSGTTVTLTISGAQAEDEADYYCQSVDNSGFYQVFGGGTQLTVLRTVAAPSVFIFPPSDEQLKSGTASVVCLLNNFYPREAKVQWKVDNALQSGNSQESVTEQDSKDSTYSLSSTLTLSKADYEKHKVYACEVTHQGLSSPVTKSFNRGEC

Kd [1]: 5.4 nM | Kd [2]: 2.7 nM
B4: 10A1 IgG-LALA (antibody)
heavy: B1 heavy with R349E
light: B1 light

Kd [5]: 18 nM
B7: clone 22 in the scFv-Fc format (Fc fusion)
chain: QVQLQQSGPGLVKPSQTLSLTCAISGDSVSSNSAAWNWIRQSPSRGLEWLGRTYYRSKWYNDYAVSVKSRITINPDTSKNQFSLQLNSVTPEDTAVYYCARGSYGSGLVWGQGTTVTVSSGSASAPTGILGSGGGGSGGGGSGGGGSNFMLTQPHSVSESPGKTVTISCTGSSGSIASNYVQWYQQRPGSAPTTVIYEDDQRPSGVPDRFSGSLDTSSNSASLTISGLRPEDEADYYCQSYDNKDNVVFGGGTKVTVLSGSSSSLEGCKPCICTVPEVSSVFIFPPKPKDVLTITLTPKVTCVVVDISKDDPEVQFSWFVDDVEVHTAQTQPREEQFNSTFRSVSELPIMHQDWLNGKEFKCRVNSAAFPAPIEKTISKTKGRPKAPQVYTIPPPKEQMAKDKVSLTCMITDFFPEDITVEWQWNGQPAENYKNTQPIMDTDGSYFVYSKLNVQKSNWEAGNTFTCSVLHEGLHNHHTEKSLSHSPGKGGGGLNDIFEAQKIEWHESRHHHHHH

Further lines, the binder ahead of its results:

B2: 10A1 IgG-RGY (antibody)
heavy: B1 heavy with E434G, S444Y
light: B1 light
Kd [1]: 6.2 nM | Kd [2]: 0.5 nM

B3: 10A1 IgG-HCscFv (antibody)
heavy: QVQLQQSGPVLVKPSQTLSLTCAISGDSISSDTTAWSWIRRSPSRGLEWLGWTYYRSKWFNYYAVSVKGRVTINPDTSKNQFSLQLSSVTPEDTAVYYCARGNGNGGMDVWGQGTTVTVSSASTKGPSVFPLAPSSKSTSGGTAALGCLVKDYFPEPVTVSWNSGALTSGVHTFPAVLQSSGLYSLSSVVTVPSSSLGTQTYICNVNHKPSNTKVDKKVEPKSCDKTHTCPPCPAPEAAGGPSVFLFPPKPKDTLMISRTPEVTCVVVDVSHEDPEVKFNWYVDGVEVHNAKTKPREEQYNSTYRVVSVLTVLHQDWLNGKEYKCKVSNKALGAPIEKTISKAKGQPREPQVYTLPPSREEMTKNQVSLTCLVKGFYPSDIAVEWESNGQPENNYKTTPPVLDSDGSFFLYSKLTVDKSRWQQGNVFSCSVMHEALHNHYTQKSLSLSPGKSSGSSGSSSSSGSSSQVQLQQSGPVLVKPSQTLSLTCAISGDSISSDTTAWSWIRRSPSRGLEWLGWTYYRSKWFNYYAVSVKGRVTINPDTSKNQFSLQLSSVTPEDTAVYYCARGNGNGGMDVWGQGTTVTVSSGSSSSSSGSSGSSSSSYVLTQPASASVSPGQTARITCSGDALPKQYAYWYQQKPGQAPVLVIFKDSERPSGVPERFSGSSSGTTVTLTISGAQAEDEADYYCQSVDNSGFYQVFGGGTQLTVL
light: B1 light
Kd [1]: 5.3 nM | Kd [2]: 1.3 nM

B5: 10A1 Fab (Fab, V domains shown)
VH: QVQLQQSGPVLVKPSQTLSLTCAISGDSISSDTTAWSWIRRSPSRGLEWLGWTYYRSKWFNYYAVSVKGRVTINPDTSKNQFSLQLSSVTPEDTAVYYCARGNGNGGMDVWGQGTTVTVSS
VL: SYVLTQPASASVSPGQTARITCSGDALPKQYAYWYQQKPGQAPVLVIFKDSERPSGVPERFSGSSSGTTVTLTISGAQAEDEADYYCQSVDNSGFYQVFGGGTQLTVL
Kd [3]: > 250 nM | Kd [4]: > 250 nM

B6: clone 10 in the scFv-Fc format (Fc fusion)
chain: QVQLQQSGPVLVKPSQTLSLTCAISGDSVSSDTTAWSWIRQSPSRGLEWLGWTYYRSKWFNYYAVSVKSRVTINPDTSKNQFSLQLSSVTPEDTAVYYCARGNGNGGMDVWGQGTTVTVSSGILGSGGGGSGGGGSGGGGSSYVLTQPPSVSVSPGQTARITCSGDALPKQYAYWYQQKPGQAPVLVIFKDSERPSGIPERFSGSSSGTTVTLTISGVQAEDEADYYCQSADNSGFYQVFGGGTQLTVLSGSSSSLEGCKPCICTVPEVSSVFIFPPKPKDVLTITLTPKVTCVVVDISKDDPEVQFSWFVDDVEVHTAQTQPREEQFNSTFRSVSELPIMHQDWLNGKEFKCRVNSAAFPAPIEKTISKTKGRPKAPQVYTIPPPKEQMAKDKVSLTCMITDFFPEDITVEWQWNGQPAENYKNTQPIMDTDGSYFVYSKLNVQKSNWEAGNTFTCSVLHEGLHNHHTEKSLSHSPGKGGGGLNDIFEAQKIEWHESRHHHHHH
Kd [5]: 14 nM
